Here are results for 11 molecules from patent US20220242950A1 (CANTARGIA, published 2022).

Substitutions are numbered along the chain they refer to.

B1: h48D2 VH5.AP:VL4 (antibody, human IgG1, kappa, L234A L235A, V domains shown)
VH: QEQLEESGGGLVKPGGTLSLTCTVSGPSLSHFDITWIRQPPGSGLEWIGTISPGVSTYYASWAKSRVTISVDTSLNTVSLKLSSVTAADTATYFCARGGVGSSWKAFDLWGPGTLVTISS
VL: ELVMTQSPSSVSASVGDRVTITCQASESISTALAWYQQKPGKAPKLLIYKASTLPSGVPSRFSGSGSGTDFTLTINSLQPEDFATYYCQQGFSSGNVHNAFGGGTKVEIKR
notes: Humanized and de-immunized; also called VL4:VH5.AP
B2: h48D2 VH5.SK:VL4 (antibody, human IgG1, kappa, L234A L235A, V domains shown)
VH: B1 VH with P40A, S43K
VL: B1 VL
notes: Humanized and de-immunized; also called VL4:VH5.SK
B3: h48D2 VH5:VL5.GL (antibody, human IgG1, kappa, L234A L235A)
heavy: not shown
light: DIQMTQSPSTLSASVGDRVTITCQASESISTALAWYQQKPGQPPKLLIYKASTLPSGVPSRFSGSGSGTEFTLTISDLESDDAATYYCQQGFSSGNVHNAFGGGTEVVVKRTVAAPSVFIFPPSDEQLKSGTASVVCLLNNFYPREAKVQWKVDNALQSGNSQESVTEQDSKDSTYSLSSTLTLSKADYEKHKVYACEVTHQGLSSPVTKSFNRGEC
notes: Humanized and de-immunized; also called VL5.GL:VH5
B4: h48D2 VH5.AP:VL5 (antibody, human IgG1, kappa, L234A L235A)
heavy: not shown
light: B3 light with D1A, I2P, Q3V, M4L, S9A, S12E
notes: Humanized and de-immunized; also called VL5:VH5.AP
B5: h48D2 VH5.GL:VL5 (antibody, human IgG1, kappa, L234A L235A)
heavy: not shown
light: B3 light with D1A, I2P, Q3V, M4L, S9A, S12E
notes: Humanized and de-immunized; also called VL5:VH5.GL
B6: h48D2 VH5.SK:VL5 (antibody, human IgG1, kappa, L234A L235A)
heavy: not shown
light: B3 light with D1A, I2P, Q3V, M4L, S9A, S12E
notes: Humanized and de-immunized; also called VL5:VH5.SK
B7: h48D2 VH5.SK:VL5.GL (antibody, human IgG1, kappa, L234A L235A)
heavy: not shown
light: B3 light
notes: Humanized and de-immunized; also called VL5.GL:VH5.SK
B8: h48D2 VH5.AP:VL5.GL (antibody, human IgG1, kappa, L234A L235A)
heavy: not shown
light: B3 light
notes: Humanized and de-immunized; also called VL5.GL:VH5.AP
B9: h48D2 VH4:VL3 (antibody, human IgG1, kappa, L234A L235A, V domains shown)
VH: QVQLQESGPGLVKPSETLSLTCTVSGPSLSHFDITWIRQPPGKGLEWIGTISPGVSTYYASWAKSRFTISVDTSKNQFSLKLTSVTAADTATYYCARGGVGSSWKAFDLWGPGTLVTVSS
VL: DILLTQTPSVVSASVGDRVTITCQASESISTALAWYQQKPGQAPRLLIYKASTLPSGVPSRFRGSGSGTDFTLTITSLQPEDFATYYCQQGFSSGNVHNAFGGGTRLEIKR
notes: Humanized; also called VL3:VH4
B10: h48D2 VH4:VL5 (antibody, human IgG1, kappa, L234A L235A, V domains shown)
VH: B9 VH
VL: APVLTQSPATLEASVGDRVTITCQASESISTALAWYQQKPGQPPKLLIYKASTLPSGVPSRFSGSGSGTEFTLTISDLESDDAATYYCQQGFSSGNVHNAFGGGTEVVVKR
notes: Humanized; also called VL5:VH4
B11: h48D2 VH4:VL4 (antibody, human IgG1, kappa, L234A L235A, V domains shown)
VH: B9 VH
VL: B1 VL
notes: Humanized; also called VL4:VH4

The first assay has as its target T1, human IL1RAP on the cell surface (human, UniProt Q9NPH3 21-570).
T1 sequence (looked up): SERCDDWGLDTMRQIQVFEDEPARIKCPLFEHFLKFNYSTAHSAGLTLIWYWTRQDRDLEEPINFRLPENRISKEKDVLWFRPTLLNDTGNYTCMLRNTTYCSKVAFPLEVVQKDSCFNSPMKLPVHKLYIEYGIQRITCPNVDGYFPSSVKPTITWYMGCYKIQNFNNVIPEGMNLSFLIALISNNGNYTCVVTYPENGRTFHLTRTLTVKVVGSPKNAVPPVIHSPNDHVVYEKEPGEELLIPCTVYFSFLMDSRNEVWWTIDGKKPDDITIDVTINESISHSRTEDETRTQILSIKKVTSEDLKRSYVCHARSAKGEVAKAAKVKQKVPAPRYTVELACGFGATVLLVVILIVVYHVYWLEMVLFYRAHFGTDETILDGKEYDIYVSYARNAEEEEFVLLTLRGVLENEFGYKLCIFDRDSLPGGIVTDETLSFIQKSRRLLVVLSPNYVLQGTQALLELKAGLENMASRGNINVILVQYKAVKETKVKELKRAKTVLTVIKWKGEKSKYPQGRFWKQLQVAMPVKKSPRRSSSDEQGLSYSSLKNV
Put plainly: cell-based or functional assay.
For B1, the “IC50 of IL-1α signaling (HEK-Blue assay)” value turned out to be 0.209 nM, the “IC50 of IL-1β signaling (HEK-Blue assay)” value turned out to be 0.122 nM, the “IC50 of IL-33 signaling (HEK-Blue assay)” value was determined as 1.48 nM and the “IC50 of IL-36α signaling (HEK-Blue assay)” value (shortened to “IC50 of IL-36α signaling”) amounted to 0.132 nM. Moreover, the “IC50 of IL-36β signaling (HEK-Blue assay)” value (from here on “IC50 of IL-36β signaling”) came out at 0.146 nM and the “IC50 of IL-36γ signaling (HEK-Blue assay)” value (“IC50 of IL-36γ signaling” for short) was found to be 0.182 nM.
Take B2: the “IC50 of IL-1α signaling (HEK-Blue assay)” value was 0.213 nM, the “IC50 of IL-1β signaling (HEK-Blue assay)” value turned out to be 0.099 nM, the “IC50 of IL-33 signaling (HEK-Blue assay)” value was determined as 5.44 nM and the “IC50 of IL-36α signaling” value amounted to 0.143 nM. In addition, the “IC50 of IL-36β signaling” value worked out at 0.108 nM and the “IC50 of IL-36γ signaling” value was determined as 0.17 nM.
In the case of B3, the “IC50 of IL-1α signaling (HEK-Blue assay)” value amounted to 0.236 nM, the “IC50 of IL-1β signaling (HEK-Blue assay)” value was found to be 0.105 nM, the “IC50 of IL-33 signaling (HEK-Blue assay)” value amounted to 7.83 nM and the “IC50 of IL-36α signaling” value came out at 0.158 nM. The “IC50 of IL-36β signaling” value came out at 0.165 nM and the “IC50 of IL-36γ signaling” value amounted to 0.217 nM.
Regarding B4, the “IC50 of IL-1α signaling (HEK-Blue assay)” value was determined as 0.178 nM, the “IC50 of IL-1β signaling (HEK-Blue assay)” value came to 0.098 nM, the “IC50 of IL-33 signaling (HEK-Blue assay)” value was determined as 1.68 nM and the “IC50 of IL-36α signaling” value came to 0.149 nM. The “IC50 of IL-36β signaling” value came out at 0.134 nM and the “IC50 of IL-36γ signaling” value was 0.191 nM.
On to B5, for which the “IC50 of IL-1α signaling (HEK-Blue assay)” value came out at 0.214 nM, the “IC50 of IL-1β signaling (HEK-Blue assay)” value was 0.0999 nM, the “IC50 of IL-33 signaling (HEK-Blue assay)” value is 2.46 nM and the “IC50 of IL-36α signaling” value is 0.128 nM. Further, the “IC50 of IL-36β signaling” value amounted to 0.135 nM and the “IC50 of IL-36γ signaling” value came out at 0.129 nM.
Take B6: the “IC50 of IL-1α signaling (HEK-Blue assay)” value stood at 0.172 nM, the “IC50 of IL-1β signaling (HEK-Blue assay)” value came out at 0.061 nM, the “IC50 of IL-33 signaling (HEK-Blue assay)” value came to 2.87 nM and the “IC50 of IL-36α signaling” value is 0.136 nM. Further, the “IC50 of IL-36β signaling” value came to 0.125 nM and the “IC50 of IL-36γ signaling” value was 0.157 nM.
For B7, the “IC50 of IL-1α signaling (HEK-Blue assay)” value was determined as 0.321 nM, the “IC50 of IL-1β signaling (HEK-Blue assay)” value was 0.117 nM, the “IC50 of IL-33 signaling (HEK-Blue assay)” value was determined as 3.11 nM and the “IC50 of IL-36α signaling” value was 0.204 nM. For the same molecule, the “IC50 of IL-36β signaling” value amounted to 0.16 nM and the “IC50 of IL-36γ signaling” value was determined as 0.245 nM.
For B8, the “IC50 of IL-1α signaling (HEK-Blue assay)” value came to 0.204 nM, the “IC50 of IL-1β signaling (HEK-Blue assay)” value is 0.107 nM, the “IC50 of IL-33 signaling (HEK-Blue assay)” value is 2.97 nM and the “IC50 of IL-36α signaling” value worked out at 0.178 nM. The “IC50 of IL-36β signaling” value was 0.162 nM and the “IC50 of IL-36γ signaling” value stood at 0.19 nM.

Another assay has as its target T2, recombinant hIL1RAP Domain1+2+3 (aa21-367) (human, UniProt Q9NPH3 21-367).
T2 construct: Numbering on Uniprot Q9NPH3
T2 sequence (looked up): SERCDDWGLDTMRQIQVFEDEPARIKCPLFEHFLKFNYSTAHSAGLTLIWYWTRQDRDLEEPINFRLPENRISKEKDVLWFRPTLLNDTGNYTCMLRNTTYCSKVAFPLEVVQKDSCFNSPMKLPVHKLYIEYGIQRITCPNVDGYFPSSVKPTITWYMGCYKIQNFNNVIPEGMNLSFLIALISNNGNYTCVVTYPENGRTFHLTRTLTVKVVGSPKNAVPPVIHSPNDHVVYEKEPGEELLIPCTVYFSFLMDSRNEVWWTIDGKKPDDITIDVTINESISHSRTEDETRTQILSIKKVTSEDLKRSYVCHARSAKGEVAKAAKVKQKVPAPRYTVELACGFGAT
Kind of assay: binding ELISA, coated recombinant hIL1RAP aa21-367. On the technique in general: ELISA stands for enzyme-linked immunosorbent assay.
A word on the IC50: it is the concentration that inhibits the measured activity by half. Take B9: the IC50 was 0.0312 µg/mL.
Consider B10, for which the IC50 is 0.0258 µg/mL.
In the case of B11, the IC50 turned out to be 0.0243 µg/mL.

A further assay deals with T2, recombinant hIL1RAP Domain1+2+3 …. Kind of assay: bio-layer interferometry, human IL1RAP. The procedure:
(§1) Affinity measurements were done on BLItz™ Label-Free Protein Analysis System from ForteBio, using the Basic Kinetics module in the BLItz Pro 1.3.1.3 software from Molecular Devices. Protein A biosensors were hydrated in blocking buffer (PBS, 0.5% BSA, 0.05% Tween 20, pH 7.4) for minimum 10 min at room temperature before coating. Protein A biosensors were coated with antibodies by dipping the biosensors in 200 μl of antibody solution (10 μg/ml in blocking buffer) for 30 min at room temperature. The sensors were then incubated in 200 μl blocking buffer for at least 10 min before use. […] The baseline was made in blocking buffer with a duration time of 30 sec. Association was made for 120 sec in hIL1RAP followed by 120 sec dissociation in blocking buffer.
The antibodies were characterized for A) binding (ELISA analysis, human and cynomolgus monkey IL1RAP), B) inhibition of cytokine signaling (HEK-Blue™ assay), C) affinity (Bio-layer interferometry), D) size heterogeneity (SE-HPLC) and E) yield (concentration, A280). […] SE-HPLC was performed using standard procedures and PBS as running buffer. Affinity and cytokine inhibition were measured as previously described in Example 10. All 25 humanized clones were analyzed for blocking activity on IL-1α, IL-1β and IL-33 signaling while only the clones that had retained the inhibitory activity similar to chimeric 48D2 were analyzed for IL-36 inhibition.
KD values for affinity towards human IL1RAP are shown in Table 11 for the humanized 48D2 variants. Affinity was measured using bio-layer interferometry. […] See also Table 4 for a direct comparison of chimeric 48D2, humanized 48D2 variant VH5:VL4, and a humanized and de-immunized 48D2 variant VH5.GL:VL4.
(In general: Biolayer interferometry detects binding as a change in optical thickness at a sensor tip.)
The Kd is the free concentration of one partner at which half of the binding sites on the other are occupied at equilibrium, for simple one-to-one binding. Consider B9, for which the Kd was 16.7 nM.
Same read-out and setting: the result for B10 reads 15 nM.
The same measure, in the same setting: the result for B11 reads 22.8 nM.

Another assay addresses T3, recombinant mf IL1RAP aa21-367 (cynomolgus monkey (Macaca fascicularis), UniProt A0A2K5X5J5 21-367).
T3 construct: also called cynomolgus monkey IL1RAP; cyno IL1RAP
T3 sequence: T2 sequence (looked up) with L183F, T273P, K326T
Kind of assay: binding ELISA, coated recombinant mf IL1RAP aa21-367.
Regarding B9, the IC50 is 0.0302 µg/mL.
The same measure, in the same setting: the figure for B10 is 0.0244 µg/mL.
As to B11, the IC50 worked out at 0.0251 µg/mL.

Another assay concerns the target T2, recombinant hIL1RAP Domain1+2+3 …. Kind of assay: bio-layer interferometry, human IL1RAP. This is another data set of the same source. On the procedure:
as §1
KD values for affinity towards human IL1RAP are shown in Table 17 for the de-immunized h48D2 variants. Affinity was measured using bio-layer interferometry. […] See also Table 4 for a direct comparison of 48D2, humanized 48D2, and de-immunized h48D2.
Consider B1, for which the Kd stood at 1.7 nM.
The same measure, in the same setting: the result for B2 reads 2 nM.
In the case of B3, the Kd was 0.752 nM.
Still for that read-out and setting: the figure for B4 is 1.96 nM; for B5 it is 1.87 nM; for B6 it is 2.8 nM.
Consider B7, for which the dissociation constant Kd is 2.28 nM.
For the molecule B8, the Kd is 1.5 nM.

For a further assay, the target named is T1, human IL1RAP on the cell surface. Put plainly: cell-based or functional assay. The source holds these as a separate data set.
Turning to B9, the “IC50 of IL-1β signaling (HEK-Blue assay)” value amounted to 2.97 nM and the “IC50 of IL-33 signaling (HEK-Blue assay)” value came to 7030 nM.
For B10 the same measures were 0.273 nM and 74.3 nM.
For B11 the same measures were 4.67 nM and 260 nM.
